Data from the nanobody polyreactivity screen of Harvey et al. (2022).

test: yeast display, Sf9 membrane polyspecificity reagent, FACS + sequencing; frameworks hold sequencing errors
Summary of the method: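 After 36–48 hours of galactose induction, yeast (Saccharomyces cerevisiae BJ5465) displaying a synthetic nanobody library were stained at 4 °C for 1 hour with 10% biotinylated, detergent-solubilized Sf9 membrane reagent. Streptavidin microbeads enriched the stained cells before FACS sorting into low and high (top ~1%) gates on anti-HA and streptavidin fluorescence. Each clone's polyreactivity label reflects its gate of origin.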

| Sequence | polyreactivity (PSR sort gate) |
| --- | --- |
| QVQLVESGGGLVQAGGSLRLSCAASGSTFHTFAMGWYRPAPGKERELVAAINRRTGGTYYADSVKGRFTISRDNAKNTVDLQMNSLKPEDTAVFYCATDWFSYRGGIFDSWGQGTQVTVSS | low polyreactivity |
| QVQLVESGGGLVQAGGSLRLSCAASGGIFYLYAMGWYRQAPGKEREFVAAISSSGGSTNYADSVKGRFTISRDNAKNTVYLQMNSLKPEDTAVYYCAARWLPFLDLGKTYEYWGQGTQVTVSS | high polyreactivity |
| QVQLVESGGGLVQAGGSLRLSCAASGSTFKWYAMGWYRPAPGKEREFVAAITKTGGRTNYADSVKGRFTISRDNAKNTVYLQMNSLKPEDTAVYYCAAGYYAGIYYYWGQGTQVTVSS | high polyreactivity |
| QVQLVESGGGLVQAGGSLRLSCAASGITLTKNAMGWYRQAPGKERELVAGITRGSRTNYADSVKGRFTISRDNAKNTVYLQMNSLKPEDTAVYYCAASYGPYRGPVGGSKMYYWGQGTQVTVSS | high polyreactivity |
| QVQLVESGGGLVQAGGSLRLSCAASGNIFVAYAMGWYRQAPGKERELVAAITSGGRTYADSVKGRFTISSDNAKNTVYLQMNSLKPEDTAVYYCNADPYYVYLGYYDRYYSGYGYWGLGTQVTVSS | low polyreactivity |
| QVQLVESGGGLFQAGGSLRLSCAASGLTFQRYDMGWYRQAPVKEIELVAAINYSGGRTYYADSVKGRFTISRDNAKNTVYLQMNSLKPEDTAVYYCAARVRNTYVYQSWDGMYYWGQGTQVTVSS | high polyreactivity |
| QVQLVESGGGLVQAGGSLRLSCAASGNIFWWNAMGWYRQAPGKERELVAAITSDSTTYYADSVKGRFTISRDNAKNTVYFQMNCLKPEDTAVYYCAAYSYGGQGVDYGYWGQGTQVSVSS | low polyreactivity |
| QVQLVESGGGLVQAGGSLRLSCAASGRIFDYYAMGWYRQAPGKERELVARITSGGTTNYADSVKGRFTISRDNAKNTVYLQMNSLKPEDTAVYYCNAQDYSDPLQMDYWGQGTQVTVSS | low polyreactivity |
| QVHLVESGGGLVQAGGSLRLSCAASGRTFYSYVMGWYRQAPGKERELVAAISSTGGTYADSVKGRFTISRDNAKNTVYLQINSLKPEETAVYYCAAATPTGYKRGGYWGQGTQVTVSS | low polyreactivity |
| QVQLVESGGGLVQAGGSLRLSCAASGIIIGANAMGWYRQAPWKERELLAAITSGGSTYYADSVKGRFTISRDNAKNTVYLQMNSLKPEDTAVYYCAADVFWLYSFTIYDYWGQGTQVTVSS | high polyreactivity |
| QVQLVESGGGLVQAGGSLRLSCAASGYIFSRNDRGWYRQAPGKERELVARITGSAGSTYYADSVKGRFTISRDNAKNTVYLQMNSLKPEDTAVYYCARRWYTWRKNKYCRMDYWGQGTQVTVSS | low polyreactivity |
| QVQLVESGGGLVQAGGSLRLSCAASGSIFSYNAMGWYRQAPGKEREFVAAITSSGTRTYYADSVKGRFTISRDNAKNTVYLQMNSLKPEDTAVYYCAAKPSRYGIGFYWGQGTQVTVSS | high polyreactivity |
| QVQLVESGGGLVQAGGSLRLSCAASGSTFGNAMGWYTQAPGKEREWVAAISSRGDRTYYADSVKGRFTISRDNAKNTGYLQMNSLKPEDTAVYYCAKDGYPNKYDYWGQGTQVTVSS | high polyreactivity |
| QVQLVESGGGLVQAGGSLRVSCAASGIIFDGNAMGWYRQAPGKERELVAAITASGGSTHYADSVKGRFTISRDNAKNTVYLQMNSLKPEDTAVYYCNKRSRTTGDYDYWGQGTHVTVSS | low polyreactivity |
| QVQLVESGGGLVQAGGSLRLSCAASGRTFGYYAMGWYRQAPGKERELVAAISWSGGSTRYADSVKGRFTISRDNAKNTVYFQLNSLKPEDTAVYYCAADSWYSFAGVYRVYGEDYWGQGTQVTVSS | high polyreactivity |
| QVQLVESGGGLVQAGGSLRLSCAASGFILEPNAMGWYRQAPGKERELVATISFSGGGTYYADSVKGRFTISRDNAKNNVYLQMNSLKPEDTAVYYCAAQGRDSDYVDFDYWGQGTQVTVSS | high polyreactivity |
| QVQLVESGGGLVQAGGSLRLSCAASGRIFSYYTMGWYRQAPGKEREMVAAITWNGGSTYYADSVKGRFTISRDNAKNTVYLQMNSLKPEDTGVYYCNRDVRYVGPSGFDYWGQGTQVTVSS | high polyreactivity |
| QVQLVESGGGLVQAGGSLRLSCAASGSTFYLYAMGWYRQAPGKERELVARISSSGGRTYYADSVKGRFTISRDNAKNTVYLQMNSLKPEDTAVYYCAASSFTSSYNYWGQGTQVTVSS | high polyreactivity |
| QVQLVESGGGLVHAGGTLSLSCADSGFTYVLYGMGWYRQEPGKESELVASITWNGVGTYYADSVKGRFTIARDNAKNTVYLHMNSLKPEDTSVYFCHADDPDLASYLGVDYWGQGSQVTVSS | high polyreactivity |
| QVQLVESGGGLVQAGGSLRLSCAASGRTFAAYAMGWYRPAPGKERELVAGITSSSVRTYYADSVKGRFTISRDNAKNTVYLQMNSLKPEDTAVYYRTARADGSSSRWRPYSKFYYWGQGTQVTVSS | low polyreactivity |
| QVQLVESGGGLVQAGGSLRLSCAASGFTFQNYAMGWYSQAPGKERELVAAITYSGGSTYYADSVKGRFTISRDNAKNPVYLQMHSLKPEDTAVYYCAKKASYWWGYEYWGQGTQVTVSS | low polyreactivity |

| Sequence | polyreactivity (PSR sort gate) |
| --- | --- |
| QVQLVESGGGLDQAGGSLRLSCVASGSIFRGNAMGWYRQAPGKERELVASISKGGGSTYYADSVKGRFIISRDNAKNTVYLQMNSLKPEDTAVYYCNAQFYNSGWSFKYYYWGQGTQVTVSS | low polyreactivity |
| QVQLVESGGGLVQAGGSLRLSCAASGSTFATYAMGWYRQAPGKERELVAAITSGGSTYYADSVKGRFTISRDNAKNTVYLQMNSLKPEDTAVYYCAARSYGWRRATYYKREEYWGQGTQVTVSS | high polyreactivity |
| QVQLVESGGGLVQAGGSLSLSCAASGRIFVSYAMGWYRQAPGKERELVAAISYSGGSTYYADSVKGRFTISRDNAKNTVYLQMNSLKPEDTAVYYCAKDGGVYAPAGDDDYWGQGTQVTVSS | low polyreactivity |
| QVQLVESGGGLVQAGGSLRLSCAASGIIFESNVMGWYRQAPGKERELVAAISRSGSRTYYADSVKGRFTISRDNAKNTVYLQMNSLKPEDTAVYYCATDSHTADEYEHWGQGTQVTVSS | high polyreactivity |
| QVQLVESAGCLVQAGGSLRLSCAASGSTIYRYAMGWYRQAPGKERELVAAITRTGGSTYADSVKGRFTISRDNAKNSVFLQMNSLKPEDTAVFYCAVQRYYVSSISPFYYWGQGTQVTVSS | low polyreactivity |
| QVQLVESGGGLVQAGVSLRLSCAASGSIFGWYAMGWYRQAPGKERELVAGITRSGGSTYYADSVKGRFTISRDNAKNNVYLQMDSLNPEDTAVYYCNADLYRKRAWGSRDGSWGQGTQVTVSS | low polyreactivity |
| QVQLVESGGGLVQAGGSLRLSCAASGRIFQYNVIGWYRQARWKERELVAAISSGGNTYYADSVKGRFTISRDNAKNTVYLQMNSLKPEDTSFYYCAADHYVPWPNYDYDYWGQGTQETVSS | low polyreactivity |
| QVQLEESGGGLVQAGGSLRLSCAASGSTFYPNAMGWYRQAPGKERELVAAISQRGGRKYYADSVKGRFTISRDNAKNTVYLQMNSLKPEDTAVYYCAATYQGYNSWYSFGYWGQGTQVTVSS | high polyreactivity |
| QVQLVESGGGLVQAGGSLRLSCAASGSIFLRYAMGWYRQAPGKERELVAAISLSGGNTYYADSVKGRFTISRDNSKNTVYLQMNSLKPEDTAVYYCAATRTKRKFDYWGQGTQVTVSS | high polyreactivity |
| QVQLVESGGGLVQAGGSLRLSCAASGFTFLYNVMGWYRQAPGKERELVAAISQSGTDTYYADSVKGRFTISRDNAKNTVYLQMNSLKPEDTAVYYCATEYYSQPRDDSWGQGTQVTVSS | low polyreactivity |
| QVQLVESGGGLVQAGGSLRLSCAASGYTFYWNAMGWYRQAPGKEREFVASFSGTSTYYADSVKGRFTISRDNAKNTVYLQMNSLKREDTAVYYCNARLTLGPRKYEYWGPGTQVTVSS | low polyreactivity |
| QVQLVESGGGLVQAGGSLRLSCAASGSTFKFNAMGWYRQAPGKERELVAAISRGGRTNYADSVKGRFTISRDNAKNTVYLQMNSLKPEDTAVYYCAKDVAGLFHVGALYYYWGQGTQVTVSS | low polyreactivity |
| QVQLVESGGGLVQAGGSLRLSCAASGFIFADYAMGWYRQAHGKERELVAAITRSGGRTYYADSVKGRFTISRDTAKNTVYVQMNSLKPDDTAVYYCNAGYAHTYDYWGQGTQVTVSS | high polyreactivity |
| QVQLVESGGGLVQAGGSLRLSCAASGFIFGRYTMGWYRQATGKERELVAAISGSDVTTYYADSVKGRFTISRDNAKNTVYLQMNSLKPEDTAVYYCAADSPWAYYEYDYWGQGTHVTVSS | low polyreactivity |
| QVQHVESGRGFVKAGCSLRLSCASSGSIFVKNAMGRYRQAPGKERELVARITYSGGSTYYADSVKGRFTISRDNAKNTVYLQMNSVKPEDNAGYYCARTRKIAGYYYWGQGTQVTESS | high polyreactivity |
| QDQHVESGGGLVQAGGSLRLSCAASGIIFTRNAMGWYRQAPGKERELVAVISWGGRTYYADSVKGRFTISRDNAKNTVYLQMNSLKPEDTAVYYCNARAPYPVGGRKGDYWGQGTQVTVSS | high polyreactivity |
| QVQLVESGGGLVQAGGSLRLSCAASGFIFHLYGMGWYRQATGKERELVAAISSGGRTYYADSVKGRFTISRDNAKNTVYLQMNSLKPEDTAVYYCAVYVAYLYSYYYWGQGTQVTVSS | low polyreactivity |
| QVQLVESGGGLVQAGGSLRLSCAASGRNIRRYTMGLYIQAPGKEREFVAAITWSGSSTNYADSVKGRFTISRDNAKNTVYLQMNSLKPEDTAVYYCAAENRRRRDDYWGQGTQVTVSS | high polyreactivity |
| QVQLVESGGGLVQAGGSLRLSCAASGFIFGTNAMGWYRQAPGKERELVAAISIGDSTYYADSVKGRFTISRDNAKNTVYVQKNSLKPEDTAVYYCNARAYSIYLLQKTYAFNYWGQGTQVTVSS | low polyreactivity |
| QVQLVESGGGLVQAGGSLRLSCAASGSIFYRYAMGWYRQAPGKERELVAAIRSRTGRTYYADSVKGRFTITRDNAKNTVYLQMNSLKQEDTAVYYCAADKYFSARFDYWGQGTQVTVSS | high polyreactivity |
